For one experiment, the system named is human ORC1 BAH domain. As to conditions: human version; ref Kuo et al., 2012; cited from earlier work.
The next experiment deals with mouse ORC1 BAH domain. As to conditions: mouse version; four-residue aromatic cage; ref Kuo et al., 2012; cited from earlier work.
Experiment [1] addresses H3 peptide dimethylated at K4. In words: ITC. On the technique in general: In ITC the heat of successive injections is recorded.
The target of experiment [2] is H3 peptide monomethylated at K4. As to the kind of experiment: ITC.
For experiment [3], the target named is unmodified H3(1-15) peptide. In words: ITC.

Entries after “also recorded” stand apart in the source; their conditions may differ.

One may read the Kd as the constant that tells how readily two partners part at equilibrium.

Take “H4K20me2: histone mark H4K20me2 / H4K20me2 peptide bound by metazoan ORC1 BAH domains”: the “recognition by ORC1 BAH domain” value is “specifically recognize” with human ORC1 BAH domain and “can use a four-residue aromatic cage to recognize the methyllysine of H4K20me2; also recorded: specifically recognize” in the experiment with mouse ORC1 BAH domain.

B1: Arabidopsis thaliana ORC1b BAH-PHD cassette (domain or fragment)
chain: SETIKKTKKKKRVYYNKVEFDETEFEIGDDVYVKRREDSNSDEEEDPEIEDCQICFKSDTNIMIECDDCLGGFHLKCLKPPLKEVPEGDWICQFCEVKKSGQSQTLDLPKPPEGKKLARTMREKLLSGDLWAARIDKLWKEVDDGVYWIRARWYMIPEETVSGRQPHNLKRELYLTNDFADIEMECILRHCSVKCPKEFSKASNDGDDVFLCEYEYDVHWRSFKRLAELADG
As for B1, the figures for the fold decrease of the binding against the unmodified H3 peptide in experiment [1] and in experiment [2] were 10 fold and 4 fold, respectively. The molecule also showed a dissociation constant Kd in experiment [3] of 3000 nM.

These data come from paper PMC4775424 (Structure (London, England : 1993), 2016).
